From US20210156867A1 (YEDA RESEARCH AND DEVELOPMENT, published 2021)

B1: GST-P1 (enzyme, human, UniProt P09211 1-210, looked up)
GST-P1 subunit: MPPYTVVYFPVRGRCAALRMLLADQGQSWKEEVVTVETWQEGSLKASCLYGQLPKFQDGDLTLYQSNTILRHLGRTLGLYGKDQQEAALVDMVNDGVEDLRCKYISLIYTNYEAGKDDYVKALPGQLKPFETLLSQNQGGKTFIVGDQISFADYNLLDLLLIHEVLAPGCLDAFPLLSAYVGRLSARPKLKAFLASPEYVNLPINGNGKQ
notes: recombinant; also called human recombinant GST-P1-1

Assays:
[1] = molecular target: T1, recombinant human B-cell lymphoma protein 2 alpha His-Tag (Bcl-2) (human, UniProt P10415 1-211, limits assumed); experiment: fluorescence displacement assay: emission of the His-Bcl-2-compound 5 sensor complex (200 nM) after adding 800 nM peptide
T1 construct: In the assay it was in complex with the Ni-NTA sensor compound 5; also called His-Bcl-2; not shown: His-tag
T1 sequence (P10415 1-211 limits assumed): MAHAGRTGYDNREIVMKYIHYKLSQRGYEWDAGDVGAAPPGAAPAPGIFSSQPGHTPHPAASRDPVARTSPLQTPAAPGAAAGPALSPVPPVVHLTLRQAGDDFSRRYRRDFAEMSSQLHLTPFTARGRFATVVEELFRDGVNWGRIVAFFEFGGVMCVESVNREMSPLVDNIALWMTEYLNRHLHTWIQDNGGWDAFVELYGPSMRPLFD

[2] = molecular target: T2, mouse recombinant His-calmodulin, calcium-bound (mouse, UniProt P0DP26 1-149); experiment: SPR, His-CaM immobilised on CM5 chip, analyte pre-incubated with 0.3 mM CaCl2
T2 construct: also called His-CaM(Ca^2+); His-CaM(Ca^+2)

[3] = molecular target: T1, recombinant human B-cell lymphoma …; experiment: fluorescence displacement assay: emission of the His-Bcl-2-compound 5 sensor complex (200 nM) after adding 800 nM protein

Binder	binding result [1]	Kd [2]	binding result [3]
KRRWKKNFIAVSAANRFKKISSSGAL (peptide, UniProt P07313 578-603, looked up, check before use)	no binding (tested: 800 nM)	8.8 nM	–
B1	–	–	no binding (tested: 800 nM)
